Changes are numbered by the printed parent chain. Values belong to the binder of their own block, whether it stands above or below them.
Target: T1, human CD115 extracellular domain (Sino Biological 10161-H08H) (human, UniProt P07333 20-517)
T1 construct: extracellular domain; bought recombinant protein; also called huCD115; hu-CD115
Assay: ELISA, supernatant on huCD115

binding result: binds
B1: CCL-333A (antibody, V domains shown)
VH: EVQLVESGGGLVKPGGSLRLSCAASGFTFSYYSMNWVRQAPGKGLEWVSSISDSSDYIYYADSVKGRFTISRDNAKNSLYLQMNSLRAEDTAVYYCARGGLRFDYWGQGTLVTVSS
VL: not shown
notes: AlivaMab chimeric IgG, human lambda LC

binding result: binds
B2: CCL-338A (antibody, V domains shown)
VH: QVQLQESGPGLVKPSETLSLTCTVSGGSISSYYWSWIRQPPGKGLEWIGYIYYSGTTNYNPSLKSRVTISVDTSKNQFSLKLSSVTAADTAVYYCARALIVGAFAYWGQGTLVTVSS
VL: SYELTQPHSVSVATAQMARITCGGNNIGSKAVHWYQQKPGQDPVLVIYSDSNRPSGIPERFSGSNPGNTATLTISRIEAGDEADYYCQVWDSSSDHRVFGGGTKLTVL
notes: as for B1

binding result: binds
B3: CCL-203A (antibody, V domains shown)
VH: B2 VH with S35N, T56S, V71L, Y94H, A98G, L99R, I100L, V101N, A105D
VL: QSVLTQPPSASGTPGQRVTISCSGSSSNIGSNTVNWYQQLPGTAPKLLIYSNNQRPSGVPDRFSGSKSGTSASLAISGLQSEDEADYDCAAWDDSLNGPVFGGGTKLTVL
notes: as for B1

binding result: binds
B4: CCK-501A (antibody, V domains shown)
VH: EVQLVESGGGLVKPGGSLRLSCAASGFTFSNAWMNWVRQAPGKGLEWVGRINSKTDGGTTDYAAPVKGRFTISRDDSKTTLYLQMNSLKTEDTAVYYCTTDGVYPDVFDIWGQGTMVTVSS
VL: not shown
notes: AlivaMab chimeric IgG, human kappa LC

binding result: binds
B5: CCK-410A (antibody, V domains shown)
VH: EVQLVESGGGLVQPGRSLRLSCTASGFTFGDYAMSWFRQAPGKGLEWVGFIRSKAYGGTTEYAASVKGRFTISRDDTKSIAYLQMNSLKIEDTAVHYCTREGSFGALDIWGQGIMVTVSS
VL: not shown
notes: as for B4

binding result: binds
B6: CCK-434A (antibody, V domains shown)
VH: EVQLVESGGGLVQPGGSLRLSCAASGFTFSSYDMHWVRQATGKGLEWVSAIGTAGDTYYPGSVKGRFTISRENAKNSLYLQMNSLRAGDTAVYYCARGHIVVVTAMDYWGQGTLVTVSS
VL: not shown
notes: as for B4

binding result: binds
B7: CCK-408A (antibody, V domains shown)
VH: QVQLQESGPGLVKPSETLSLTCTVSGGSISSYYWSWIRQPAGKGLEWIGRIYTSGSTNYHPSFKSRVTMSVDTSKTQFSLKLSSLTAADTAVYYCARGGITWFDPWGQGTLVTVSS
VL: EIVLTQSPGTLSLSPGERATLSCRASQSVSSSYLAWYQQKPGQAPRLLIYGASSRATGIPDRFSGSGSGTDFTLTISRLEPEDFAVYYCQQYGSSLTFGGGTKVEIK
notes: as for B4

binding result: binds
B8: CCL-209A (antibody, V domains shown)
VH: QVQLQESGPGLVKPSETLSLTCTVSGGSISSFYWSWIRQSPGRGLEWIGYIFYSGSTKYNPSLMSRVTISADTSKNQFSLKLSSVTAADTAVYYCARGRLGNYFDYWGQGTLVTVSS
VL: not shown
notes: as for B1

binding result: binds
B9: CCL-208A (antibody, V domains shown)
VH: QVQLVQSGAEVKKPGASVKVSCKASGYTFTDYYMHWVRQAPGQGLEWMGWINPNSGGANYAQKFQGRVTMTRDTSISIAYMELSRLRSDDTAIYYCARGRLTFFDYWGQGTLVTVSS
VL: not shown
notes: as for B1

binding result: binds
B10: CCL-324A (antibody, V domains shown)
VH: QVQLQESGPGLVKPSETLSLTCTVSGGSISSYYWSWIRQPPGKGLEWIGYVYYSGSTNYNPSLKSRVTTSVDTSKNQFSLKLRSVTAADTAVYYCARDRLGIAFDIWGQGTMVTVSS
VL: SSELTQDPAVSVALGQTVRITCQGDSLRSYYASWYQQKPGQAPILVIYGKNNRPSGIPDRFSGSSSGNTASLTITGAQAEDEADYYCNSQDNSGNHLVVFGRGTKLTVL
notes: as for B1

binding result: binds
B11: CCL-349A (antibody, V domains shown)
VH: B10 VH with S31I, S35N, V51I, S54I, T69I, R83S, D98G, G101T, I102Y
VL: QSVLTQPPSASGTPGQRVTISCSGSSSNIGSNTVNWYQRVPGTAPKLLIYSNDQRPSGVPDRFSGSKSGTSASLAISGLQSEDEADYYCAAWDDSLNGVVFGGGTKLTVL
notes: as for B1

binding result: binds
B12: CCL-201A (antibody, V domains shown)
VH: B10 VH with S35I, V51F, T69I, D72G, R83S, D98S, I102S, A103I, I106Y, M112L
VL: not shown
notes: as for B1
